Changes are numbered by the printed parent chain.
B1: H183/L072 VL S26E (antibody, name in Kabat numbering, V domains shown)
VH: QVQLVESGGGLVQPGRSLRLSCAASGFTFSNAWMHWVRQAPGKGLEWVAQIKDKGNAYAAYYAPSVKGRFTISRDDSKNSIYLQMNSLKTEDTAVYYCHYVHYASASTVLPAFGVDAWGQGTTVTVSS
VL: DIVMTQSPLSLPVTPGEPASISCQAEQELVHMNRNTYLHWYQQKPGQAPRLLIYKVSNRFPGVPDRFSGSGSGTDFTLKISRVEAEDVGVYYCAQGTSVPFTFGQGTKLEIK
notes: Dual-Ig
B2: H183/L072 VL S26G (antibody, name in Kabat numbering, V domains shown)
VH: B1 VH
VL: B1 VL with E26G
notes: Dual-Ig
B3: H183/L072 VL S26M (antibody, name in Kabat numbering, V domains shown)
VH: B1 VH
VL: B1 VL with E26M
notes: Dual-Ig
B4: H183/L072 VL S26L (antibody, name in Kabat numbering, V domains shown)
VH: B1 VH
VL: B1 VL with E26L
notes: Dual-Ig
B5: H183/L072 VL S26Y (antibody, name in Kabat numbering, V domains shown)
VH: B1 VH
VL: B1 VL with E26Y
notes: Dual-Ig
B6: H183/L072 VL S26V (antibody, name in Kabat numbering, V domains shown)
VH: B1 VH
VL: B1 VL with E26V
notes: Dual-Ig
B7: H183/L072 VL S26I (antibody, name in Kabat numbering, V domains shown)
VH: B1 VH
VL: B1 VL with E26I
notes: Dual-Ig
B8: H183/L072 VL S52A (antibody, name in Kabat numbering, V domains shown)
VH: B1 VH
VL: B1 VL with E26S, S57A
notes: Dual-Ig
B9: H183/L072 VL S26P (antibody, name in Kabat numbering, V domains shown)
VH: B1 VH
VL: B1 VL with E26P
notes: Dual-Ig
B10: H183/L072 VL S26T (antibody, name in Kabat numbering, V domains shown)
VH: B1 VH
VL: B1 VL with E26T
notes: Dual-Ig
B11: H183/L072 VL S26K (antibody, name in Kabat numbering, V domains shown)
VH: B1 VH
VL: B1 VL with E26K
notes: Dual-Ig
B12: H183/L072 VL S26H (antibody, name in Kabat numbering, V domains shown)
VH: B1 VH
VL: B1 VL with E26H
notes: Dual-Ig
B13: H183/L072 VL S26Q (antibody, name in Kabat numbering, V domains shown)
VH: B1 VH
VL: B1 VL with E26Q
notes: Dual-Ig
B14: H183/L072 VL S26N (antibody, name in Kabat numbering, V domains shown)
VH: B1 VH
VL: B1 VL with E26N
notes: Dual-Ig
B15: H183/L072 VL S52D (antibody, name in Kabat numbering, V domains shown)
VH: B1 VH
VL: B1 VL with E26S, S57D
notes: Dual-Ig
B16: H183/L072 VL S26R (antibody, name in Kabat numbering, V domains shown)
VH: B1 VH
VL: B1 VL with E26R
notes: Dual-Ig
B17: H183/L072 VL S26F (antibody, name in Kabat numbering, V domains shown)
VH: B1 VH
VL: B1 VL with E26F
notes: Dual-Ig
B18: H183/L072 VL S26W (antibody, name in Kabat numbering, V domains shown)
VH: B1 VH
VL: B1 VL with E26W
notes: Dual-Ig

Each binder was assayed against T1, Human CD137 ECD (human) (assay: Biacore SPR, vs parent H183/L072).
T1 construct: entry includes C-terminal His-tag and biotin acceptor peptide; also called human CD137 extracellular domain; 4-1BB
T1 sequence (chain, as listed by the source limits assumed): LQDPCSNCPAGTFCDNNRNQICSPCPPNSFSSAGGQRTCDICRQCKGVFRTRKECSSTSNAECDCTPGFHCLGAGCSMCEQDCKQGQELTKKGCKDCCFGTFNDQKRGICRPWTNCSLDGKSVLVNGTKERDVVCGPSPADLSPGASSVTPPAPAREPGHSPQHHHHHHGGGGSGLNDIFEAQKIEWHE

Row | Binder | fold change of affinity [fold]
1 | B1 | 0.8
2 | B2 | 0.9
3 | B3 | 0.6
4 | B4 | 0.3
5 | B5 | 0.2
6 | B6 | 0.3
7 | B7 | 0.2
8 | B8 | 1
9 | B9 | 0.2
10 | B10 | 1
11 | B11 | 0.5
12 | B12 | 0.2
13 | B13 | 0.7
14 | B14 | 0.7
15 | B15 | 0.8
16 | B16 | 0.3
17 | B17 | 0.2
18 | B18 | 0.1

Source: patent US20210388087A1 (Chugai, published 2021)
